Patent US20260062463A1 (KANGYUAN BIOMEDICAL TECH DALIAN, published 2026)

How the values were obtained:
AAV8 [1] = molecular target: T1, AAV8 (adeno-associated virus 8, Assembled 60-mer capsid of VP1/VP2/VP3 (nested products of one cap gene), amine-coupled to a CM5 chip; the letters give one VP1 subunit only.); test: SPR, AAV amine-coupled to CM5 chip
T1 construct: also called adeno-associated virus serotype 8
T1 chain: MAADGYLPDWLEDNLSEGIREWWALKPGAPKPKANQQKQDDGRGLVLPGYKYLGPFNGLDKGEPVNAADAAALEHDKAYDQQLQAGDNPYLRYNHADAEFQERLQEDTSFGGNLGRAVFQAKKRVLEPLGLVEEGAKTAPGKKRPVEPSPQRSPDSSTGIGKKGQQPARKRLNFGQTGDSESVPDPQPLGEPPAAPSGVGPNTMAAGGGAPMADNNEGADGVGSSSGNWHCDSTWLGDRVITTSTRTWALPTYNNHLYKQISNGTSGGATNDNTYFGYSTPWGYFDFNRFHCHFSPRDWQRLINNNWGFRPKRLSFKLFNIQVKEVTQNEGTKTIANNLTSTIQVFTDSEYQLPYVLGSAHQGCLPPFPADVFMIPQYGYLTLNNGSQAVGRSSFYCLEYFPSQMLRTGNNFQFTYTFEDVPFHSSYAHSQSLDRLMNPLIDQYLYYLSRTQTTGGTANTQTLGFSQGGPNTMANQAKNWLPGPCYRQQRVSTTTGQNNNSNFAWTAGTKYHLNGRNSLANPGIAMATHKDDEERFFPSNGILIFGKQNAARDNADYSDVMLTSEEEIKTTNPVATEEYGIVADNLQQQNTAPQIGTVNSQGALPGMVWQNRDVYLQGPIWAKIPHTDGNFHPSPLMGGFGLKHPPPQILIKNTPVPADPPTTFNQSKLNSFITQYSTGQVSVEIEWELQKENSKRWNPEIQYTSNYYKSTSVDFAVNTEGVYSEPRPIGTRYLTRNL

AAV9 = molecular target: T2, AAV9 (adeno-associated virus 9, Assembled 60-mer capsid of VP1/VP2/VP3 (nested products of one cap gene), amine-coupled to a CM5 chip; the letters give one VP1 subunit only.); test: SPR, AAV amine-coupled to CM5 chip
T2 construct: also called adeno-associated virus serotype 9

AAV5 = molecular target: T3, AAV5 (adeno-associated virus 5, Assembled 60-mer capsid of VP1/VP2/VP3 (nested products of one cap gene), amine-coupled to a CM5 chip; the letters give one VP1 subunit only.); test: SPR, AAV amine-coupled to CM5 chip
T3 construct: also called adeno-associated virus serotype 5

AAV8 [2] = molecular target: T4, AAV8 (adeno-associated virus 8); test: SPR, AAV on CM5 chip
T4 construct: also called adeno-associated virus serotype 8
Experimental: AAV was amine-coupled to a CM5 sensor chip at a density of 500-800 response units (RU). Nanobodies were injected at seven concentrations (1-100 nM) with a flow rate of 45 μL/min, and chip regeneration was performed using glycine-HCl (pH 1.5).

B1: A4-D2 (VHH)
chain: VQLQESGGGLVQAGGSLRLSCAASGRGFSINTMGWYRQAPGKQRELVAAVTRGGTTNYADSVKGRFTISRDNAKNTVYLQMNSLRPEDTAVYYCHVDEVRQSSWTTSNLWGQGTQVTVSSGGGGSGGGGSGGGGSVQLQESGGGLVQAGGSLRLSCAASGRGFSINTMGWYRQAPGKQRELVAAVTRGGTTNYADSVKGRFTISRDNAKNTVYLQMNSLRPEDTAVYYCHVDEVRQSSWTTSNLWGQGTQVTVSSGGGGSGGGGSGGGGSVQLQESGGGLVQAGGSLRLSCAASGRGFSINTMGWYRQAPGKQRELVAAVTRGGTTNYADSVKGRFTISRDNAKNTVYLQMNSLRPEDTAVYYCHVDEVRQSSWTTSNLWGQGTQVTVSSGGGGSGGGGSGGGGSVQLQESGGGLVQAGGSLRLSCAASGRGFSINTMGWYRQAPGKQRELVAAVTRGGTTNYADSVKGRFTISRDNAKNTVYLQMNSLRPEDTAVYYCHVDEVRQSSWTTSNLWGQGTQVTVSS
Question: For B1, which Kd (AAV8 [1]) is on record?
Answer: The Kd was 0.0821 nM.

Question: And the koff (AAV8 [1])?
Answer: The koff was 3.6e-06 s⁻¹.

Question: What about the kon (AAV8 [1]) of the same binder?
Answer: Its kon is 43900 M⁻¹ s⁻¹.

Question: What about the Kd (AAV9) of the same binder?
Answer: Its Kd is 0.304 nM.

Question: And the koff (AAV9)?
Answer: Its koff is 9e-06 s⁻¹.

Question: And the kon (AAV9)?
Answer: Its kon is 29600 M⁻¹ s⁻¹.

Question: And the Kd (AAV5)?
Answer: Its Kd is 0.0996 nM.

Question: And the koff (AAV5)?
Answer: The koff was 5.7e-06 s⁻¹.

Question: And the kon (AAV5)?
Answer: Its kon is 57200 M⁻¹ s⁻¹.

B2: A4-052 (VHH)
VHH: VQLQESGGGLVQPGGSLRLSCAASGSIFIINTMGWYRQAPGKQRELVAAVTRGGSTNYADSVKGRFTISRDNAKNTVYLQMNSLRPEDTAVYYCHVDEVRQSSWTTSNLWGQGTQVTVSS
Question: B2 was tested. Which kon (AAV8 [2]) did it give?
Answer: The kon was 31800 M⁻¹ s⁻¹.

B3: A4-C8 (bispecific antibody)
chain: VQLQESGGGLVQPGGSLRLSCAASGSNFRINTMGWYRQAPGKQRELVAPVTRGGSTNYADSVKGRFTISRDNAKNTVYLQMNSLRPEDTAVYYCHVDEVRESSWTTSNLWGQGTQVTVSSGGGGSGGGGSGGGGSVQLQESGGGLVQPGGSLRLSCAASGSNFSINTMGWYRQAPGKQRELVATVTRGGDTNYADSVKGRFTISRDNAKNTVYLQMNSLRPEDTAVYYCHVDEIRESSWTTSNLWGQGTQVTVSSGGGGSGGGGSGGGGSVQLQESGGGLVQPGGSLRLSCAASGSNFSINTMGWYRQAPGKQRELVAALTRGGSTNYADSVKGRFTISRDNAKNTVYLQMNSLRPEDTAVYYCHVDEVRESSWTTSNLWGQGTQVTVSS
Question: B3 was tested. Which Kd (AAV8 [1]) did it give?
Answer: The Kd was 2.81 nM.

Question: And the koff (AAV8 [1])?
Answer: The koff was 0.00037 s⁻¹.

Question: What about the kon (AAV8 [1]) of the same binder?
Answer: The kon was 132000 M⁻¹ s⁻¹.

Question: What about the Kd (AAV9) of the same binder?
Answer: The Kd was 0.279 nM.

Question: What about the koff (AAV9) of the same binder?
Answer: Its koff is 5e-05 s⁻¹.

Question: What about the kon (AAV9) of the same binder?
Answer: The kon was 179000 M⁻¹ s⁻¹.

Question: What about the Kd (AAV5) of the same binder?
Answer: The Kd was 0.69 nM.

Question: What about the koff (AAV5) of the same binder?
Answer: Its koff is 0.00013 s⁻¹.

Question: What about the kon (AAV5) of the same binder?
Answer: Its kon is 188000 M⁻¹ s⁻¹.

B4: A4-D5 (other)
chain: VQLQESGGGLVQPGGSLRLSCVASGSSFSINTMGWYRRAPGKQRELVATVTRDGSTNYANSVKGRFTISRDNAKNTVYLQMNSLRPEDTAVYYCHVDEVRQSSWTTSNLWGQGTQVTVSSGGGGSGGGGSGGGGSVQLQESGGGLVQPGGSLRLSCVASGSSFSINTMGWYRRAPGKQRELVATVTRDGSTNYANSVKGRFTISRDNAKNTVYLQMNSLRPEDTAVYYCHVDEVRQSSWTTSNLWGQGTQVTVSSGGGGSGGGGSGGGGSVQLQESGGGLVQPGGSLRLSCVASGSSFSINTMGWYRQAPGKQRELVATVTRDGSTNYANSVKGRFTISRDNAKNTVYLQMNSLRPEDTAVYYCHVDEVRQSSWTTSNLWGQGTQVTVSSGGGGSGGGGSGGGGSVQLQESGGGLVQPGGSLRLSCVASGSSFSINTMGWYRRAPGKQRELVATVTRDGSTNYANSVKGRFTISRDNAKNTVYLQMNSLRPEDTAVYYCHVDEVRQSSWTTSNLWGQGTQVTVSS
Question: What does the source list for B4?
Answer: Kd (AAV8 [1]): 0.0836 nM; koff (AAV8 [1]): 5e-06 s⁻¹; kon (AAV8 [1]): 59800 M⁻¹ s⁻¹; Kd (AAV9): 0.117 nM; koff (AAV9): 4.3e-06 s⁻¹; kon (AAV9): 36900 M⁻¹ s⁻¹; Kd (AAV5): 0.318 nM; koff (AAV5): 1.34e-05 s⁻¹; kon (AAV5): 42100 M⁻¹ s⁻¹
